Data taken from the supplement of paper PMC9732359.
± gives the uncertainty stated by the source.

Assay: protein stability index of a GFP-peptide fusion (yeast GPS) (PSI 1-4); higher = more stable; sorted into four equal gates, so the index is relative within each strain
Procedure, shortened: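 The protein stability index of a peptide was calculated by multiplying its read frequency in each gate by that gate's number and adding the products. The peptides were tiled 17-residue stretches of yeast proteins, fused downstream of GFP on a Cherry-expressing plasmid and carried in yeast as a pooled library. Mid-log cultures in leucine-free medium were sorted into four equal gates by GFP/Cherry ratio, and each gate's plasmids were PCR-amplified and Illumina-sequenced.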

Sequence	protein stability index (doa10∆)	protein stability index (pdr5∆)	protein stability index (san1∆)	protein stability index (ubr1∆)
KPTSHKQLQQPKSSPLK [SIR4]	2.87 ± 0.057	3 ± 0.058	3.04 ± 0.039	2.95 ± 0.032
VNIEPFNIDDEIKHGVF [LIN1]	3.48 ± 0.15	3 ± 0.21	3.45 ± 0.14	3.48 ± 0.077
GRSHTRNSTRSSGFNED [REC8]	–	3.55 ± 0.23	–	–
STTAALQSISSLTISLY [RPN7]	1.74 ± 0.041	1.82 ± 0.035	1.95 ± 0.049	2.12 ± 0.047
LAVFLFDIYNRDRKLIT [YJL039C/NUP192]	1.98 ± 0.2	1.46 ± 0.13	–	–
TTVIGIRGSDQAIPKFQ [RPN2]	–	2.74 ± 0.23	–	–
AKRHRKILRDNIQGITK [HHF1]	3.01 ± 0.094	3.44 ± 0.098	3.21 ± 0.058	3.07 ± 0.069
IIRQLSELNEGNLSKRE [SRB8]	3.18 ± 0.12	3.53 ± 0.11	3.4 ± 0.1	3.42 ± 0.27
GGSFGNREEFINKLVKA [RPL7B]	3.01 ± 0.22	–	–	2.93 ± 0.078
VKDEAFDDLLKPVYKGK [RET1]	3.35 ± 0.16	3.32 ± 0.15	3.3 ± 0.11	3.12 ± 0.17
AFHTAVLRLNAIPLLKV [NUT1]	1.94 ± 0.059	2.43 ± 0.053	2.35 ± 0.07	1.99 ± 0.05
FEVLAPKWERVFLFDIE [RRI2]	3.41 ± 0.12	2.72 ± 0.085	2.92 ± 0.1	2.52 ± 0.068
LVTKILPLKKNEIIGDR [YCG1]	2.88 ± 0.22	2.9 ± 0.18	2.6 ± 0.24	2.83 ± 0.27
EERERKDQYVPEVSALD [RPS17A]	2.91 ± 0.082	3.13 ± 0.057	3.17 ± 0.042	2.82 ± 0.049
EYALEAVKRGTCAVGVK [PRE6]	1.93 ± 0.08	2.53 ± 0.094	2.21 ± 0.13	2.92 ± 0.084
GSGQPDNDTVVTNDDKS [SRB8]	3.08 ± 0.23	3.29 ± 0.17	2.52 ± 0.15	–
QNMQQSLQQMQHLQQLK [GAL11]	2.96 ± 0.095	2.95 ± 0.07	2.94 ± 0.074	2.89 ± 0.098
GYQWGEENKDIMNVLSE [PRP8]	2.8 ± 0.22	–	–	3.16 ± 0.24
KRVVVPQALRVLRLKPG [RPL16A]	3.05 ± 0.087	3.11 ± 0.1	3.15 ± 0.056	2.09 ± 0.12
QPSYNSAIIENAFRKEE [GAL11]	2.86 ± 0.086	2.68 ± 0.091	2.74 ± 0.077	2.76 ± 0.055
DPDLGLDLMFDEVYVQN [YJL039C/NUP192]	3.06 ± 0.13	3.04 ± 0.11	2.93 ± 0.11	2.85 ± 0.038
NVSENQPWQMDTNNEAD [SNF12]	3.11 ± 0.052	3.26 ± 0.064	3.17 ± 0.042	3.25 ± 0.04
TALEHKVVNGNSADAAY [FAS2]	2.84 ± 0.08	3.09 ± 0.088	3.05 ± 0.063	3.13 ± 0.06
FQLIDMKDKEINIQKYN [CSI1]	2.47 ± 0.17	1.98 ± 0.11	–	2.57 ± 0.14
VQVKVLGKYEFSKILPA [ESC2]	2.03 ± 0.15	1.99 ± 0.14	–	1.83 ± 0.19
SIDCLLILILVISFGQP [SWI1]	1.85 ± 0.043	1.64 ± 0.034	1.52 ± 0.071	1.59 ± 0.029
NKHLTTLVEIFLERKCV [SSN3]	2.6 ± 0.17	2.73 ± 0.2	–	3.2 ± 0.17
MSKITSSQVREHVKELL [RPL1A]	1.59 ± 0.092	2.09 ± 0.065	2.45 ± 0.093	1.99 ± 0.051

Sequence	protein stability index (doa10∆)	protein stability index (pdr5∆)	protein stability index (san1∆)	protein stability index (ubr1∆)
YNVCDTSKSLVKRYRLA [SIN4]	2.39 ± 0.055	2.81 ± 0.058	2.58 ± 0.062	3.16 ± 0.042
FKSTMLQVSEKDLFELE [ARP7]	1.25 ± 0.089	2.49 ± 0.11	1.1 ± 0.16	1.4 ± 0.098
QLISAVLVSMGSSNKAV [YJL039C/NUP192]	1.47 ± 0.23	1.69 ± 0.14	–	1.23 ± 0.084
QKDKSDTYKRFKYLLGV [ISW2]	1.59 ± 0.05	1.4 ± 0.062	1.4 ± 0.1	1.58 ± 0.048
VPYVVTHDGRTIRYPDP [RPS4A]	3.08 ± 0.1	3.16 ± 0.17	–	3.38 ± 0.19
GIRIKGKIVGFDEFMNV [SME1]	3.15 ± 0.068	2.96 ± 0.098	3.23 ± 0.076	3.12 ± 0.099
IEEKLSSFSKKTLTEEV [YIL149C/MLP2]	2.92 ± 0.054	3.07 ± 0.052	3.03 ± 0.052	3 ± 0.048
EPYHFISNYNTKYTDDM [SRB8]	2.96 ± 0.11	2.98 ± 0.07	3.01 ± 0.057	3.19 ± 0.1
EREIKRRKFDPSSSENV [UBP6]	3.51 ± 0.078	3.37 ± 0.071	3.14 ± 0.065	3.33 ± 0.13
FKLSSESVIEQIVKYAR [RPS13]	2.54 ± 0.1	2.97 ± 0.11	2.63 ± 0.097	2.72 ± 0.043
YMDSMNEKVAVMRNTYN [GAL11]	2.72 ± 0.13	3.24 ± 0.062	2.35 ± 0.069	2.34 ± 0.098
GNMCRGGRMFAPTKTWR [RPL4A]	2.92 ± 0.078	2.61 ± 0.12	3.04 ± 0.063	2.34 ± 0.053
MEDEILSLGMDFIKFDQ [BRN1]	3.23 ± 0.061	3.35 ± 0.052	3.27 ± 0.041	3.15 ± 0.043
SPLYMDTETFDTVNSAL [YML103C/NUP188]	3.11 ± 0.14	3.27 ± 0.14	3.18 ± 0.074	3.21 ± 0.058
IFRGSLIGCIPYSKNAV [YDL088C/ASM4]	2.18 ± 0.062	2.51 ± 0.09	2.14 ± 0.13	2.19 ± 0.068
RRNLRYGDRMKLAKNLQ [RPO31]	3.15 ± 0.091	3.38 ± 0.073	3.48 ± 0.079	3.44 ± 0.067
DLAVCATIIGIISTAIA [ECM29]	1.95 ± 0.052	2.07 ± 0.043	1.99 ± 0.054	1.95 ± 0.029
ENSGKEMDEKSYEKNED [LIN1]	3.64 ± 0.28	3.29 ± 0.12	3.33 ± 0.14	3.16 ± 0.11
ENIQEGTSLTIQHIAAA [CDC53]	2.52 ± 0.091	3.11 ± 0.086	2.42 ± 0.099	2.91 ± 0.077
DERTKEFEKKLQETLNK [YIL149C/MLP2]	–	–	2.88 ± 0.12	–
ENRKKDESDSENDIEIK [YLR335W/NUP2]	2.68 ± 0.1	2.23 ± 0.15	1.65 ± 0.12	2.73 ± 0.082
TFIKDCLFTKCLEDPEK [POP4]	1.57 ± 0.11	1.78 ± 0.091	1.57 ± 0.18	1.83 ± 0.061
GFKTPKTAIEGSYIDKK [RPS11A]	2.98 ± 0.043	3.21 ± 0.052	3.12 ± 0.032	3.201 ± 0.031
GQQKIILSKKWGFTNLD [RPL10]	2.68 ± 0.22	–	–	2.29 ± 0.21
NDLHHSEKKYAEEDQVQ [RPN3]	2.85 ± 0.1	3.3 ± 0.16	2.99 ± 0.13	2.98 ± 0.21
RPHQSRESLIMLLEEQL [MED7]	2 ± 0.081	2.37 ± 0.093	1.45 ± 0.19	2.12 ± 0.054
EVNREEAIGFIRGSNKF [SMC3]	2.84 ± 0.21	2.77 ± 0.11	2.88 ± 0.14	2.57 ± 0.09
